Measurements taken from patent US11612667B2, “Enhanced in vivo targeting of radiolabelled peptides with the means of enzyme inhibitors” (Advanced Accelerator Applications USA, Inc., priority 2011, dated 2023).
Where two headings read alike, the source gives them in different places. Non-standard residues stand in square brackets, D forms with d. Residues, ends and D or L forms follow the SMILES beside them. *: point of attachment. DOTA = O=C(O)CN1CCN(CC(=O)O)CCN(CC(=O)*)CCN(CC(=O)O)CC1; Tle = CC(C)(C)[C@H](N)C(=O)O; X1 = NCCNCC(CNCCN)C(=O)*; Dab = NCC[C@H](N)C(=O)O; βAla = NCCC(=O)O

Legend:
NEP = NEP (Homo sapiens, UniProt P08473); conditions: reversible competitive inhibitor; cited from earlier work
Sequence of NEP (P08473 whole entry): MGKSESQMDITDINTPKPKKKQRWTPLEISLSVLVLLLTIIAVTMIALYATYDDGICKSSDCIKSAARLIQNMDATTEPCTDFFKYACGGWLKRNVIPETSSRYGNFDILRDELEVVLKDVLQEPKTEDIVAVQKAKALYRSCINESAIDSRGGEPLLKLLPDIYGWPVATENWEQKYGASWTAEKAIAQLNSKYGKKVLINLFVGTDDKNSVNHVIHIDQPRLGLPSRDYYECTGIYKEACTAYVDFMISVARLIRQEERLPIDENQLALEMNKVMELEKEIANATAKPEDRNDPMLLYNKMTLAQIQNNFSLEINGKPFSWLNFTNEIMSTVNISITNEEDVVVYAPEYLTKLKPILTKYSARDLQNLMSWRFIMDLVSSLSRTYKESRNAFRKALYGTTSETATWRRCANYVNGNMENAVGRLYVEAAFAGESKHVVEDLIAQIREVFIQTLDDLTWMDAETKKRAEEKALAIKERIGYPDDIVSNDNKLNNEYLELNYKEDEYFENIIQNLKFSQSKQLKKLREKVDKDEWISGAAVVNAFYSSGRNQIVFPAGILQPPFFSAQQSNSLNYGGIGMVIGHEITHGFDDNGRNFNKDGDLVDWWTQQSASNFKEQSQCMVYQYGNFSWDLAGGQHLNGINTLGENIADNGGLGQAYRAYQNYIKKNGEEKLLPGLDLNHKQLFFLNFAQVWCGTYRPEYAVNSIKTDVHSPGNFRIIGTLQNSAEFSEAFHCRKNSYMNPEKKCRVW

AR4-2J tumors (rsst2+) = system: AR4-2J tumors (rsst2+); set-up: species or system SCID mice; conditions: SCID, mouse, in vivo, 4 h
Experimental: FIG. 1D: Biodistribution of [(^111In-DOTA)Ala^1]Somatostatin-14 in SCID mice bearing AR4-2J tumors (rsst2^+) at 4 h pi.
FIG. 2C: Biodistribution of [(^111In-DOTA)Ala^1, DTrp^8]Somatostatin-14 in SCID mice bearing AR4-2J tumors (rsst2^+) at 4 h pi.
Of great importance is the direct translation of PA-(or race) induced radiopeptide stabilization into meaningful and dramatic increase of tumor uptake in animals. Indeed, uptake in the rsst2^+ AR4-2J tumor after injection of ^111In[(DOTA)Ala^1]SS14 reached 13.87±2.4% ID/g in the PA-treated group at 4 h pi vs. 0.67±0.1% ID/g in the non-treated controls, while in the race pre-treated mice tumor values reached 3.51±0.2% ID/g, as presented in FIG. 1B. The corresponding values for the DTrp^8-analog, shown in FIG. 2B, reach 9.06±3.57% ID/g (PA group), 4.18±2.28% ID/g (race group) and 1.82±0.36% ID/g (non-treated controls).

[1] = human; cited from earlier work
[2] = set-up: species or system Swiss albino mice; conditions: mouse, in vivo, 5 min
Experimental: Whole blood was collected 5 min postinjection (pi), blood cells were removed and major proteins were precipitated and then the supernatant was analyzed by RP-HPLC coupled to a gamma detector.
Alternatively, the dual NEP and ACE inhibitor racecadotril (race; 2.5 mg) was ip injected 45-60 min prior to radioligand injection and the same procedure was followed as described above.
To test the in vivo stability, ^111In-DOTA-MG11 was injected in the tail vein of Swiss albino mice and 5 min afterwards blood was collected, blood cells were removed and major proteins were precipitated and then the supernatant was analyzed by RP-HPLC coupled to a gamma detector. As shown in the radiochromatogram of FIG. 3A, the major part of ^111In-DOTA-MG11 was consumed during this period (<5% intact peptide still detected), in agreement with previous reports. Further, ^111In-DOTA-MG11 was co-injected together with PA or injected 1 h after ip injection of race (2.5 mg) in more mice and the same protocol was followed as above. Amazingly, the percentage of ^111In-DOTA-MG11 found intact in the blood of the PA-treated mice was raised from <5% to 75% and in the race-pretreated mice to 73%.
For ex vivo blood analysis, [^99mTc]Demotensin 6 was injected in the tail vein of Swiss albino mice and blood collected 5 min thereafter was analyzed as previously described. The effect of PA on stability was studied by co-injection of PA along with [^99mTc]Demotensin 6. Furthermore, a PA dose study was performed with the PA injected dose ranging from 300 μg down to 0.03 μg and results are summarized in FIG. 4A.
Additional groups of radiopeptides with relevance for nuclear medicine applications have been studied for their in vivo stability. Radiopeptides were injected in the tail vein of healthy mice, either alone, or with a NEP inhibitor (PA—300 μg), or with a NEP (PA—300 μg) and an ACE (Lis—300 μg) inhibitor mixture; alternatively, another NEP inhibitor prodrug (race—2.5 mg) was ip injected in the animals ˜45 min prior to radioligand injection. Blood was collected 5 min afterwards, and analyzed by RP-HPLC after suitable preparation, as previously described.

WiDr tumors (hNTS1+) = test: Biodistribution / tumor uptake in SCID mice bearing WiDr tumors (hNTS1+); conditions: SCID, mouse, in vivo, 4 h
Experimental: FIG. 4H: Biodistribution of [^99mTc]Demotensin 6 in SCID mice bearing WiDr tumors (hNTS1^+) at 4 h pi. Bars represent average uptake as mean % injected dose per gram (% ID/g) of at least 4 animals with standard deviation (control at 4 h 2nd bars); three additional groups of animals received either excess NT(1-13) and PA (100 μg blocker and 300 μg PA—first bars), or PA (300 μg PA—3rd bars) or PA and Lis (300 μg PA+250 μg Lis—4th bars). Bl=blood, Li=liver, He=heart, Ki=kidneys, St=stomach, In=intestines, Sp=spleen, Mu=muscle, Lu=lungs, Pa=pancreas, Fe=femur and Tu=WiDr tumor.
FIG. 5H: Biodistribution of [^99mTc]Demotensin 1 in SCID mice bearing WiDr tumors (hNTS1+) at 4 h pi. Bars represent average uptake as mean % injected dose per gram (% ID/g) of at least 4 animals with standard deviation (control at 4 h 2nd bars); three additional groups of animals received either excess NT and PA (100 μg and 300 μg PA, respectively—first bars), or PA (300 μg PA—3rd bars) or PA and Lis (300 μg PA+300 μg Lis—4th bars). Bl=blood, Li=liver, He=heart, Ki=kidneys, St=stomach, In=intestines, Sp=spleen, Mu=muscle, Lu=lungs, Pa=pancreas, Fe=femur and Tu=WiDr tumor.
In FIG. 4B the effects of such regimens on SCID mice bearing the human colon adenocarcinoma WiDr tumor (a hNTS1R^+ tumor) on enhancing in vivo tumor targeting are presented.
In FIG. 5B the effects of above regimens on SCID mice bearing WiDr tumors (hNTS1R^+) on enhancing in vivo tumor targeting are shown.

[3] = mouse; cited from earlier work
AR4-2J tumors (rCCK2R+) = system: AR4-2J tumors (rCCK2R+); set-up: species or system SCID mice; conditions: mouse, in vivo
Experimental: FIG. 3D: Biodistribution of ^111In-DOTA-MG11 in SCID mice bearing AR4-2J tumors (rCCK2R^+) at 4 h pi.
Biodistribution results in SCID mice bearing rCCK2R^+ AR4-2J tumors 4 h after injection of ^111In-DOTA-MG11 alone or together with PA or 1 h after ip injection of race are shown in FIG. 3B.

For CC(C)C[C@H](NP(=O)(O)O[C@@H]1O[C@@H](C)[C@H](O)[C@@H](O)[C@H]1O)C(=O)N[C@@H](Cc1c[nH]c2ccccc12)C(=O)O [Phosphoramidon, phosphoramidon], the IC50 (NEP) is listed as 34 nM.
With C[C@H](NC(=O)CN1CCN(CC(=O)O)CCN(CC(=O)O)CCN(CC(=O)O)CC1)C(=O)NCC(=O)N[C@H]1CSSC[C@@H](C(=O)O)NC(=O)[C@H](CO)NC(=O)[C@H]([C@@H](C)O)NC(=O)[C@H](Cc2ccccc2)NC(=O)[C@H]([C@@H](C)O)NC(=O)[C@H](CCCCN)NC(=O)[C@H](Cc2c[nH]c3ccccc23)NC(=O)[C@H](Cc2ccccc2)NC(=O)[C@H](Cc2ccccc2)NC(=O)[C@H](CC(N)=O)NC(=O)[C@H](CCCCN)NC1=O [[(^111In-DOTA)Ala^1]Somatostatin-14, metal not drawn] the “uptake in AR4-2J tumor” value (AR4-2J tumors (rsst2+)) was 0.67±0.1 % ID/g.
For CC(C)C[C@H](NC(=O)[C@@H](NC(=O)[C@H](Cc1ccc(O)cc1)NC(=O)[C@@H]1CCCN1C(=O)[C@H](CCN)NC(=O)[C@H](CCCNC(=N)N)NC(=O)CCNC(=O)C(CNCCN)CNCCN)C(C)(C)C)C(=O)O [[^99mTc]Demotensin 6, ^99mTc-N4-βAla-Arg-Dab-Pro-Tyr-Tle-Leu-OH, metal not drawn] ({X1-βAla}-R[Dab]PY[Tle]L-OH), the “in vitro stability in plasma” value [1] is given as “stable”, the “percentage of parent peptide remaining intact” value [2] is given as 52% and the “uptake in WiDr tumor” value (WiDr tumors (hNTS1+)) is given as 1.61±0.42 % ID/g. The “in vitro stability in plasma” value [3] was “stable”.
In the case of CSCC[C@H](NC(=O)[C@H](Cc1c[nH]c2ccccc12)NC(=O)CNC(=O)[C@H](Cc1ccc(O)cc1)NC(=O)[C@H](C)NC(=O)[C@@H](CCC(=O)O)NC(=O)CN1CCN(CC(=O)O)CCN(CC(=O)O)CCN(CC(=O)O)CC1)C(=O)N[C@@H](CC(=O)O)C(=O)N[C@@H](Cc1ccccc1)C(N)=O [^111In-DOTA-MG11, [(^111In-DOTA)DGlu^10]Minigastrin(10-17), metal not drawn] ({DOTA}-[dE]AYGWMDF-NH2), the “uptake in AR4-2J tumor” value (AR4-2J tumors (rCCK2R+); SCID, 4 h) is reported as 1.22±0.06 % ID/g, the “increase in the tumor by PA administration” value (AR4-2J tumors (rCCK2R+)) is reported as greater than 9 fold and the “percentage of parent peptide remaining intact” value [2] is reported as less than 5%.
